# Data published in article PMC9044722.
# Tests used:
# [1] = target: His-CRM1 recombinant protein (UniProt O14980); experiment: SPR; without TLNC1; conditions: natural protein; chains chain; remark: other sources report otherwise
# [2] = target: His-CRM1 recombinant protein (UniProt O14980); experiment: SPR; with TLNC1 (lncRNA); conditions: natural protein; chains chain; remark: other sources report otherwise
# Sequence of UniProt O14980 (O14980 whole entry): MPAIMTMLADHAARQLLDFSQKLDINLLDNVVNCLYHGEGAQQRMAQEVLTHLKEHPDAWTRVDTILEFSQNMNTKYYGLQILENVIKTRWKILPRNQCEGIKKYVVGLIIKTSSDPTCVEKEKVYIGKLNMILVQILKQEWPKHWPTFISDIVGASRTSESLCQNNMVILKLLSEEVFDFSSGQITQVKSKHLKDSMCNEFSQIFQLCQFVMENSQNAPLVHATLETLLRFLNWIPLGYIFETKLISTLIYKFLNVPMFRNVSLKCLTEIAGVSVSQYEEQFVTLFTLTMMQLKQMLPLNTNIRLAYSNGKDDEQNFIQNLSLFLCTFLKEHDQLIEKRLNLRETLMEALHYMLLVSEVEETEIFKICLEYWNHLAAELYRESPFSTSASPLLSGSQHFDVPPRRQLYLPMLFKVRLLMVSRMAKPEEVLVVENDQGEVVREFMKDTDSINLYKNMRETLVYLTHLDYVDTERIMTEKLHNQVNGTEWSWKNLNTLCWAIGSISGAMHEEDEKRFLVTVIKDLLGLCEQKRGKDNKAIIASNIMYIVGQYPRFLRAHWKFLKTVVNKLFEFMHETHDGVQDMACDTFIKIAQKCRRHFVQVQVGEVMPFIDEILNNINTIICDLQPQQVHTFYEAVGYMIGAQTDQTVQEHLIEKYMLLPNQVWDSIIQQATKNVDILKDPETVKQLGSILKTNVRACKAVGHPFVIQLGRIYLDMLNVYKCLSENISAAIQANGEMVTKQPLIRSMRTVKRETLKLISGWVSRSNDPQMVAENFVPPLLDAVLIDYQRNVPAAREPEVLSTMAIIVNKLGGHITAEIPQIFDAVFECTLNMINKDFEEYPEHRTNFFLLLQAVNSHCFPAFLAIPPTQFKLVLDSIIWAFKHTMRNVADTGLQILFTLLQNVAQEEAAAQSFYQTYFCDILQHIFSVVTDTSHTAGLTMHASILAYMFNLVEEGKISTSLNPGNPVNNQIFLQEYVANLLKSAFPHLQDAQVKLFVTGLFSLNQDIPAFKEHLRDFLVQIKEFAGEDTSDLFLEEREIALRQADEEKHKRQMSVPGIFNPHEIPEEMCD
substance,measurement,setting,value
"His-TPR recombinant protein, P12270 1-2363",Kd,[1],181 nM
same,Kd,[2],31.6 nM
